T1: human IL-18BP (human, UniProt O95998 31-194)
T1 construct: UniProt printed as 095998; also called hIL-18BP
T1 sequence: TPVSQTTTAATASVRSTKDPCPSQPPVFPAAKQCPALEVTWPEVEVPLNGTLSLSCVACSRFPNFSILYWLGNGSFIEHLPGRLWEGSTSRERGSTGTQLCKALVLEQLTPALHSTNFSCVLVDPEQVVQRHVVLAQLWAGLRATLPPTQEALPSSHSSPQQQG

B1: SA301a LC-S93V (antibody, V domains shown)
VH: QVQLQESGPGLVKPSQTLSLTCTVSGYSITSDYNSHWIRQPPGKGLEWIGYIHYSGSTNYNPSLKSRVTISRDTSKNQFSLKLSSVTAADTAVYYCARNYGSIYVNYFDYWGQGTLVTVSS
VL: EIVLTQSPATLSLSPGERATLSCSASSSVSYMYWYQQKPGQAPRPLIYRTSNLASGIPARFSGSGSGTDFTLTISSLEPEDFAVYYCQQYHVYPTFGGGTKVEIK
B2: SA301a LC-S93G (antibody, V domains shown)
VH: QVQLQESGPGLVKPSQTLSLTCTVSGYSITSDYNSHWIRQPPGKGLEWIGYIHYSGSTNYNPSLKSRVTISRDTSKNQFSLKLSSVTAADTAVYYCARNYGSIYVNYFDYWGQGTLVTVSS
VL: EIVLTQSPATLSLSPGERATLSCSASSSVSYMYWYQQKPGQAPRPLIYRTSNLASGIPARFSGSGSGTDFTLTISSLEPEDFAVYYCQQYHGYPTFGGGTKVEIK
B3: SA301a LC-S93P (antibody, V domains shown)
VH: QVQLQESGPGLVKPSQTLSLTCTVSGYSITSDYNSHWIRQPPGKGLEWIGYIHYSGSTNYNPSLKSRVTISRDTSKNQFSLKLSSVTAADTAVYYCARNYGSIYVNYFDYWGQGTLVTVSS
VL: EIVLTQSPATLSLSPGERATLSCSASSSVSYMYWYQQKPGQAPRPLIYRTSNLASGIPARFSGSGSGTDFTLTISSLEPEDFAVYYCQQYHPYPTFGGGTKVEIK
B4: SA301a LC-S93I (antibody, V domains shown)
VH: QVQLQESGPGLVKPSQTLSLTCTVSGYSITSDYNSHWIRQPPGKGLEWIGYIHYSGSTNYNPSLKSRVTISRDTSKNQFSLKLSSVTAADTAVYYCARNYGSIYVNYFDYWGQGTLVTVSS
VL: EIVLTQSPATLSLSPGERATLSCSASSSVSYMYWYQQKPGQAPRPLIYRTSNLASGIPARFSGSGSGTDFTLTISSLEPEDFAVYYCQQYHIYPTFGGGTKVEIK
B5: SA301a LC-S93D (antibody, V domains shown)
VH: QVQLQESGPGLVKPSQTLSLTCTVSGYSITSDYNSHWIRQPPGKGLEWIGYIHYSGSTNYNPSLKSRVTISRDTSKNQFSLKLSSVTAADTAVYYCARNYGSIYVNYFDYWGQGTLVTVSS
VL: EIVLTQSPATLSLSPGERATLSCSASSSVSYMYWYQQKPGQAPRPLIYRTSNLASGIPARFSGSGSGTDFTLTISSLEPEDFAVYYCQQYHDYPTFGGGTKVEIK
B6: SA301a LC-S93Q (antibody, V domains shown)
VH: QVQLQESGPGLVKPSQTLSLTCTVSGYSITSDYNSHWIRQPPGKGLEWIGYIHYSGSTNYNPSLKSRVTISRDTSKNQFSLKLSSVTAADTAVYYCARNYGSIYVNYFDYWGQGTLVTVSS
VL: EIVLTQSPATLSLSPGERATLSCSASSSVSYMYWYQQKPGQAPRPLIYRTSNLASGIPARFSGSGSGTDFTLTISSLEPEDFAVYYCQQYHQYPTFGGGTKVEIK
B7: SA301a LC-S93Y (antibody, V domains shown)
VH: QVQLQESGPGLVKPSQTLSLTCTVSGYSITSDYNSHWIRQPPGKGLEWIGYIHYSGSTNYNPSLKSRVTISRDTSKNQFSLKLSSVTAADTAVYYCARNYGSIYVNYFDYWGQGTLVTVSS
VL: EIVLTQSPATLSLSPGERATLSCSASSSVSYMYWYQQKPGQAPRPLIYRTSNLASGIPARFSGSGSGTDFTLTISSLEPEDFAVYYCQQYHYYPTFGGGTKVEIK
B8: SA301a LC-S93F (antibody, V domains shown)
VH: QVQLQESGPGLVKPSQTLSLTCTVSGYSITSDYNSHWIRQPPGKGLEWIGYIHYSGSTNYNPSLKSRVTISRDTSKNQFSLKLSSVTAADTAVYYCARNYGSIYVNYFDYWGQGTLVTVSS
VL: EIVLTQSPATLSLSPGERATLSCSASSSVSYMYWYQQKPGQAPRPLIYRTSNLASGIPARFSGSGSGTDFTLTISSLEPEDFAVYYCQQYHFYPTFGGGTKVEIK
B9: SA301a LC-S93M (antibody, V domains shown)
VH: QVQLQESGPGLVKPSQTLSLTCTVSGYSITSDYNSHWIRQPPGKGLEWIGYIHYSGSTNYNPSLKSRVTISRDTSKNQFSLKLSSVTAADTAVYYCARNYGSIYVNYFDYWGQGTLVTVSS
VL: EIVLTQSPATLSLSPGERATLSCSASSSVSYMYWYQQKPGQAPRPLIYRTSNLASGIPARFSGSGSGTDFTLTISSLEPEDFAVYYCQQYHMYPTFGGGTKVEIK

What follows are binders tested against T1, human IL-18BP (assay: BLI, apparent KD).
Binder B1 has a Kd of 0.19 nM.
Work on B2 yielded a Kd of 0.08 nM.
Work on B3 yielded a Kd of 0.41 nM.
B4 gave a Kd of 0.21 nM.
Work on B5 yielded a Kd of 0.23 nM.
In the case of B6, the Kd is reported as 0.24 nM.
In the case of B7, the Kd is reported as 0.19 nM.
For B8, the Kd was 0.15 nM.
For B9, the Kd was 0.14 nM.
